Data reported in patent publication US20230212319A1, “NOVEL ANTIGEN BINDING DOMAINS AND SYNTHETIC ANTIGEN RECEPTORS INCORPORATING THE SAME” (University of Southern California, priority 2020, published 2023).

Tests used:
Format in all cases: cell-based
RAJI cells = assay: JNG assay, co-culture with RAJI cells; details: for NFAT-GFP ASSAY: Raji: JNG cells expressing construct, co-culture with Raji
Summary of the method: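 Read-out is NFAT-driven GFP measured by flow cytometry after ~4–18 h co-culture of SAR-expressing JNG cells with target cells (E:T about 1:2). SARs were introduced by lentiviral spinfection and selected with puromycin or blasticidin when possible; scores (+/- to 5+ ≈ 5–50% GFP+) are relative to parental JNG cells.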

Nalm6 cells = assay: JNG assay, co-culture with Nalm6 cells; details: for NFAT-GFP ASSAY: Nalm6: co-culture with Nalm6
Summary of the method: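 Scoring uses % GFP+ reporter cells above the parental control, where +/-, +, 2+, 3+, 4+ and 5+ correspond to about 5, 10, 20, 30, 40 and 50%. Effectors were SAR-expressing Jurkat NFAT-GFP cells cocultured with targets (E:T ~1:2, ~4–18 h).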

RS;411 = assay: JNG assay, co-culture with RS;411 cells; details: for NFAT-GFP ASSAY: RS411: co-culture with RS411
Description: Cellular supernatant is collected and assayed for the induction of cytokines (e.g., IL2).
JNG (Jurkat cells expressing EGFP under an NFAT promoter) were infected with lentiviral vectors encoding different single chain and multi-chain SARs by spinfection in the presence of 8 µg/ml of Polybrene® (Sigma, Catalog no. H9268). The Jurkat-NFAT-GFP cells are engineered in such a way that the IL-2 promoter, which carries NFAT binding sites, is cloned upstream of the GFP gene. These cells have been used to study signaling via TCR and CAR. The different SARs were stably expressed in Jurkat NFAT-GFP cells by lentiviral mediated gene transfer, followed by selection with puromycin or blasticidin. No drug selection was used in case the construct lacked an antibiotic resistance gene. The SAR-expressing Jurkat-NFAT-GFP cells were cocultured with the target cells at E:T ratio of approximately 1:2 for approximately 4 hours to 18 hours. When the interaction between SIRs and their target antigen results in activation of the NFAT pathway, GFP expression is induced. […] GFP expression was monitored by FACS analysis. The Jurkat-NFAT-GFP (parental) cells were used as control. The structure of different constructs can be determined based on their names. […] The sequence of the other constructs in the table can be similarly determined from their names and by referring to the different Tables of this disclosure that provide the names and SEQ ID NO of the different modules. Alternatively, the composition and modular architecture of the different SAR constructs can be determined from their sequences by bioinformatics tools, including using nucleic acid and amino acids homology searches. A SAR is considered positive in the assay in case the SAR expressing Jurkat-NFAT-GFP cells show greater % GFP positive cells when cultured with the target cell line as compared to parental Jurkat-NFAT-GFP cells. […] In general, the number +/-, +, 2+, 3+, 4+, 5+ refer to approximately 5%, 10%, 20%, 30%, 40% and 50% GFP positive cells. The % of GFP induction in the above assay is dependent not only the relative strength of the SAR but also, among other factors, on the relative level of expression of the SAR in the JNG cells and the relative level of expression of the target antigen in the target cell line. To control for the difference in gene transduction efficiency of the different SAR constructs, the experiment was conducted with JNG cells transduced with SAR constructs co-expressing a drug resistance gene (e.g., puromycin or PAC) followed by drug selection to generate a stable population of SAR-expressing cells. It is to be noted that the drug resistance gene (e.g., PAC) in the SAR constructs is optional and in vivo studies were conducted with SAR constructs lacking the PAC gene.

| Molecule | GFP induction / activity (RAJI cells; co-culture with RAJI cells) | GFP induction / activity (Nalm6 cells; co-culture with Nalm6 cells) | GFP induction / activity (RS;411; co-culture with RS;411 cells) | NFAT-GFP ASSAY: Raji (RAJI cells) | NFAT-GFP ASSAY: Nalm6 (Nalm6 cells) | NFAT-GFP ASSAY: RS411 (RS;411) |
| --- | --- | --- | --- | --- | --- | --- |
| SEQ ID NO: 22162: bispecific SAR construct targeting CD19 and PD1 (protein) MALPVTALLLPLALLLHAARPDIQMTQSPSSLSASVGDRVTITCKASDHINNWLAWYQQKPGQAPKLLIYGATTLETGVPSRFSGSGSGTDYTLTISSLQPEDFATYYCQQSWNTPWTFGQGTKLEIKRLEDLKNVFPPEVAVFEPSEAEISHTQKATLVCLATGFYPDHVELSWWVNGKEVHSGVCTDPQPLKEQPALNDSRYCLSSRLRVSATFWQNPRNHFRCQVQFYGLSENDEWTQDRAKPVTQIVSAEAWGRADCGFTSESYQQGVLSATILYEILLGKATLYAVLVSALVLMAMVKRKDSRGRAKRSGSGATNFSLLKQAGDVEENPGPTSATMDWIWRILFLVGAATGAHSGPEVQLLESGGGLVQPGGSLRLSCAASGSIASIHAMGWFRQAPGKEREFVAVITWSGGITYYADSVKGRFTISRDNSKNTVYLQMNSLRPEDTALYYCAGDKHQSSWYDYWGQGTLVTVSSGSGGGGSGGGGSGGGGSFEQVQLQQPGAELVKPGASVKMSCKASGYAFSSYWINWMKQKPGQGLEWIGQIYPGDGDTNYNGKFKGRATLTADTSSSTAYMQLSSLTSEDSAVYFCARSITTVVGCAMDYWGQGTSVTVSSTRIQNPDPAVYQLRDSKSSDKSVCLFTDFDSQTNVSQSKDSDVYITDKCVLDMRSMDFKSNSAVAWSNKSDFACANAFNNSIIPEDTFFPSPESSCDVKLVEKSFETDTNLNFQNLSVIGFRILLLKVAGFNLLMTLRLWSSRAKRSGSGVKQTLNFDLLKLAGDVESNPGPSRGHMTEYKPTVRLATRDDVPRAVRTLAAAFADYPATRHTVDPDRHIERVTELQELFLTRVGLDIGKVWVADDGAAVAVWTTPESVEAGAVFAEIGPRMAELSGSRLAAQQQMEGLLAPHRPKEPAWFLATVGVSPDHQGKGLGSAVVLPGVEAAERAGVPAFLETSAPRNLPFYERLGFTVTADVEVPEGPRTWCMTRKPGA | robust activity | robust activity | robust activity |  |  |  |
| 22136 (protein) MALPVTALLLPLALLLHAARPEVQLVESGGGLVQAGGSLRLSCAASGRTFSMGWFRQAPGKEREFVAAITYSGGSPYYADSVKGRFTISRDNAKNTVYLQMNSLKPEDTAVYYCAANPTYGSDWNAENWGQGTQVTVSSGTGGGGSGGGGSGGGGSEFDIQMTQSPSSLSASVGDRVTITCKASDHINNWLAWYQQKPGQAPKLLIYGATTLETGVPSRFSGSGSGTDYTLTISSLQPEDFATYYCQQSWNTPWTFGQGTKLEIKRLEDLKNVFPPEVAVFEPSEAEISHTQKATLVCLATGFYPDHVELSWWVNGKEVHSGVCTDPQPLKEQPALNDSRYCLSSRLRVSATFWQNPRNHFRCQVQFYGLSENDEWTQDRAKPVTQIVSAEAWGRADCGFTSESYQQGVLSATILYEILLGKATLYAVLVSALVLMAMVKRKDSRGRAKRSGSGATNFSLLKQAGDVEENPGPTSATMDWIWRILFLVGAATGAHSGPQVQLQESGGGLAQAGGSLRLSCAASGRTFSMGWFRQAPGKEREFVAAITYSGGSPYYASSVRGRFTISRDNAKNTVYLQMNSLKPEDTAVYYCAANPTYGSDWNAENWGQGTQVTVSSGSGGGGSGGGGSGGGGSFEQVQLQQPGAELVKPGASVKMSCKASGYAFSSYWINWMKQKPGQGLEWIGQIYPGDGDTNYNGKFKGRATLTADTSSSTAYMQLSSLTSEDSAVYFCARSITTVVGCAMDYWGQGTSVTVSSTRIQNPDPAVYQLRDSKSSDKSVCLFTDFDSQTNVSQSKDSDVYITDKCVLDMRSMDFKSNSAVAWSNKSDFACANAFNNSIIPEDTFFPSPESSCDVKLVEKSFETDTNLNFQNLSVIGFRILLLKVAGFNLLMTLRLWSSRAKRSGSGVKQTLNFDLLKLAGDVESNPGPSRGHMTEYKPTVRLATRDDVPRAVRTLAAAFADYPATRHTVDPDRHIERVTELQELFLTRVGLDIGKVWVADDGAAVAVWTTPESVEAGAVFAEIGPRMAELSGSRLAAQQQMEGLLAPHRPKEPAWFLATVGVSPDHQGKGLGSAVVLPGVEAAERAGVPAFLETSAPRNLPFYERLGFTVTADVEVPEGPRTWCMTRKPGA |  |  |  | 3+ (refer to approximately 5%, 10%, 20%, 30%, 40% and 50% GFP positive cells) | + (refer to approximately 5%, 10%, 20%, 30%, 40% and 50% GFP positive cells) | + (refer to approximately 5%, 10%, 20%, 30%, 40% and 50% GFP positive cells) |
| 22126 (protein) MALPVTALLLPLALLLHAARPEVQLVESGGGLVQPGGSLRLSCAASGFSFSDFWMSWVRQAPGKGLEWVATISQAGSEKDYVDSVKGRFTISRDNAKKSLYLQMNSLRAEDTAVYYCASGVYSFDYRGQGTLVTVSSGTGGGGSGGGGSGGGGSEFDIQMTQSPSSLSASVGDRVTITCKASDHINNWLAWYQQKPGQAPKLLIYGATTLETGVPSRFSGSGSGTDYTLTISSLQPEDFATYYCQQSWNTPWTFGQGTKLEIKRLEDLKNVFPPEVAVFEPSKAEIAHTQKATLVCLATGFYPDHVELSWWVNGKEVHSGVCTDPQPLKEQPALNDSRYCLSSRLRVSATFWQNPRNHFRCQVQFYGLSENDEWTQDRAKPVTQIVSAEAWGRADCGITSASYHQGVLSATILYEILLGKATLYAVLVSALVLMAMVKRKDSRGRAKRSGSGATNFSLLKQAGDVEENPGPTSATMDWIWRILFLVGAATGAHSGPQVQLQESGGGLAQAGGSLRLSCAASGRTFSMGWFRQAPGKEREFVAAITYSGGSPYYASSVRGRFTISRDNAKNTVYLQMNSLKPEDTAVYYCAANPTYGSDWNAENWGQGTQVTVSSGSGGGGSGGGGSGGGGSFEQVQLQQPGAELVKPGASVKMSCKASGYAFSSYWINWMKQKPGQGLEWIGQIYPGDGDTNYNGKFKGRATLTADTSSSTAYMQLSSLTSEDSAVYFCARSITTVVGCAMDYWGQGTSVTVSSTRIQNPDPAVYQLRDSKSSDKSVCLFTDFDSQTNVSQSKDSDVYITDKCVLDMRSMDFKSNSAVAWSNKSDFACANAFNNSIIPEDTFFPSSDVPCDVKLVEKSFETDTNLNFQNLSVIGFRILLLKVAGFNLLMTLRLWSSRAKRSGSGVKQTLNFDLLKLAGDVESNPGPSRGHMTEYKPTVRLATRDDVPRAVRTLAAAFADYPATRHTVDPDRHIERVTELQELFLTRVGLDIGKVWVADDGAAVAVWTTPESVEAGAVFAEIGPRMAELSGSRLAAQQQMEGLLAPHRPKEPAWFLATVGVSPDHQGKGLGSAVVLPGVEAAERAGVPAFLETSAPRNLPFYERLGFTVTADVEVPEGPRTWCMTRKPGA |  |  |  | 5+ (refer to approximately 5%, 10%, 20%, 30%, 40% and 50% GFP positive cells) | 5+ (refer to approximately 5%, 10%, 20%, 30%, 40% and 50% GFP positive cells) | +/- (refer to approximately 5%, 10%, 20%, 30%, 40% and 50% GFP positive cells) |
